The source of these data is patent publication CN111234012A.

The target of the experiment is HBV病毒 (HepAD38细胞上清制备的HBV病毒液). Briefly: cell-based or functional assay.

乙肝免疫球蛋白 (HBIG) (antibody) gave an HBV neutralisation on HepG2-NTCP cells, HBeAg in supernatant (IC50) of 15 µg/mL.
